Laboratory results taken from PMC10360031.

Assays:
[1] = biological target: recombinant human Vim (human) (UniProt P08670); assay: quartz crystal microbalance with dissipation (QCM-D); pH 7.4
[2] = biological target: recombinant human Vim (human) (UniProt P08670); assay: quartz crystal microbalance with dissipation (QCM-D)
[3] = biological target: recombinant human Vim (human) (UniProt P08670); assay: AFM single-molecule force spectroscopy

Sequence of recombinant human Vim (human) (P08670 whole entry): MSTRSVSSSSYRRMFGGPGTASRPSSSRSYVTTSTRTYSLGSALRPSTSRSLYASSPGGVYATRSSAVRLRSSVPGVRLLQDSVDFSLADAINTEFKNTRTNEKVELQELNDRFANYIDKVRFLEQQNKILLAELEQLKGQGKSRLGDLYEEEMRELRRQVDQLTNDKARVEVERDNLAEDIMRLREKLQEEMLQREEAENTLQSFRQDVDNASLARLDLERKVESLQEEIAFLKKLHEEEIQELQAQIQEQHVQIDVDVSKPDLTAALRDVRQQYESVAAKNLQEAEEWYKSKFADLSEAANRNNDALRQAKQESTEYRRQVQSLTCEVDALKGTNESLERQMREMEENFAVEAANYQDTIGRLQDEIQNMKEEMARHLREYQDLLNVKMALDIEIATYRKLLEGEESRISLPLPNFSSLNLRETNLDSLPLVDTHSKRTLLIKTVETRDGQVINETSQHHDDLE

wild-strain SARS-CoV-2 spike protein RBD (from UniProt P0DTC2) (domain or fragment)
adsorbed amount [1]: 1 mg m^–2 | Ka (equilibrium adsorption constant), fraction I [2]: 0.0011 cm | Ka (equilibrium adsorption constant), fraction II [2]: 0.46 cm | Keq, fraction I [2]: 4.7e+06 L mol^–1 | Keq, fraction II [2]: 9.2e+08 L mol^–1 | desorption time, loosely bound fraction [2]: 200 s | desorption time, tightly bound fraction [2]: > 10000 s | kd' (desorption constant), fraction I [2]: 0.063 s^–1 | kd' (desorption constant), fraction II [2]: 0.00015 s^–1 | binding probability (specific adhesion events) (% of force curves) [3]: < 20 | rupture force at 5 um/s [3]: 58 pN
